Measured values from US20260263566A1 (REALTA, published 2026).
Ends that are not written are not given here. dPEG24 = 24 PEG moieties, at the C-terminus

Target: T1, Human neutrophil myeloperoxidase (MPO), purified (human, UniProt P05164 165-745, limits assumed)
T1 sequence (looked up): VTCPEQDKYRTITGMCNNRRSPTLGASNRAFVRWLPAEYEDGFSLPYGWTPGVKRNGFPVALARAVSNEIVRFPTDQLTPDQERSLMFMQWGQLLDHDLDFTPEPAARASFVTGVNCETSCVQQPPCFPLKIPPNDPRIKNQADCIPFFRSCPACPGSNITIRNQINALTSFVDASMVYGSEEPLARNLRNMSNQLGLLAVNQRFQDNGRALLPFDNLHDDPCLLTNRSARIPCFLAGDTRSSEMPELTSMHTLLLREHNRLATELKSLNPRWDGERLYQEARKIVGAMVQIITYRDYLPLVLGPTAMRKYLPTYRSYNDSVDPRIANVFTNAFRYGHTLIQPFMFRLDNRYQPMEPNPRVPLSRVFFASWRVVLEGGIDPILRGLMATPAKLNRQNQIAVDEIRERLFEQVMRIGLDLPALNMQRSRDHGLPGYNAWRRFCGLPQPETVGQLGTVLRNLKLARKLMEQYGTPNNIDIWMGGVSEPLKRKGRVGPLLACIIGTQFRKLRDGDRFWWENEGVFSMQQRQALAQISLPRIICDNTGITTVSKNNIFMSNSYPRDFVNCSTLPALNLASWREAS
Experiment: cell-based or functional assay

## IALILEPICCQERAA-dPEG24 (cysteine pairing not given here) [PA-dPEG24 (IALILEPICCQERAA-dPEG24)]
  peroxidase activity by TMB in peritoneal wash supernatant (rat; 0.1 mg purified MPO IP, then 20 mg PA-dPEG24 IP, 2 hours): 5 fold decrease
